This is an account of results in PMC13054468 (Analytical chemistry, 2025).

Data set [1] addresses hepatitis B virus (HBV) capsid protein (hepatitis B virus) (UniProt P03146). Nature of the data set: native MS.
Data set [2] deals with the molecule itself. The data set can be described thus: native MS.

Where “and” joins values, the source holds several entries; their conditions need not be identical. Equal values may be shown once.

On to “hepatitis B virus (HBV) capsid protein (from UniProt P03146 1-183) (natural protein)”, for which the stoichiometry N in data set [1] is 240 and 180.

B1: cholera toxin B (natural protein)
chain: TPQNITDLCAEYHNTQIYTLNDKIFSYTESLAGKREMAIITFKNGAIFQVEVPGSQHIDSQKKAIERMKDTLRIAYLTEAKVEKLCVWNNKTPHAIAAISMAN
notes: also called CTB
Turning to B1, the binding result in data set [2] is “binds”.
